# B1: Harpin: Harpin protein, isolated from Erwinia amylovora (products known as Messenger, ProAct, Employ) (protein, UniProt Q01099 1-403, looked up)
# Harpin HrpN: MSLNTSGLGASTMQISIGGAGGNNGLLGTSRQNAGLGGNSALGLGGGNQNDTVNQLAGLLTGMMMMMSMMGGGGLMGGGLGGGLGNGLGGSGGLGEGLSNALNDMLGGSLNTLGSKGGNNTTSTTNSPLDQALGINSTSQNDDSTSGTDSTSDSSDPMQQLLKMFSEIMQSLFGDGQDGTQGSSSGGKQPTEGEQNAYKKGVTDALSGLMGNGLSQLLGNGGLGGGQGGNAGTGLDGSSLGGKGLQNLSGPVDYQQLGNAVGTGIGMKAGIQALNDIGTHSDSSTRSFVNKGDRAMAKEIGQFMDQYPEVFGKPQYQKGPGQEVKTDDKSWAKALSKPDDDGMTPASMEQFNKAKGMIKSAMAGDTGNGNLQARGAGGSSLGIDAMMAGDAINNMALGKLGAA
# Assays:
# Type in all cases: in vivo
# [1] = test system: mustard beetle larvae (Phaedon cochleariae); experiment: Phaedon cochleariae larvae - spray application (Example 1); conditions: 48 h, read-out: Mortality in % after 2d
# Method: (§1) Solvent: 78.0 parts by weight of acetone
# (§2) • 1.5 parts by weight of dimethylformamide Emulsifier: 0.5 parts by weight of alkylaryl polyglycolether
# (§3) To produce a suitable preparation of active compound, 1 part by weight of active compound is mixed with the stated amount of solvent and emulsifier, and the concentrate is diluted with emulsifier-containing water to the desired concentration. The preparation of bacteria, fungi or yeast products contains 10^9-10^10 spores/g or cells/g, the preparation of the virus 10^13 particles/1. To produce a suitable preparation of a biological suspension the cells, viruses or spores are diluted with emulsifier-containing water to the desired concentration.
# Chinese cabbage (Brassica pekinensis) leaf-discs are sprayed with a preparation of the active ingredient of the desired concentration. Once dry, the leaf discs are infested with mustard beetle larvae (Phaedon cochleariae).
# After the specified period of time, mortality in % is determined. 100% means that all the beetle larvae have been killed; 0% means that none of the beetle larvae have been killed. The mortality values thus determined are recalculated using the Colby-formula.
# [2] = test system: fall armyworm larvae (Spodoptera frugiperda); experiment: Spodoptera frugiperda - spray application (Example 2); conditions: 1.5 g ai/ha
# Method: as §1, §2
# as §3, with “preparation of the bacteria, fungi” for “preparation of bacteria, fungi”
# Corn (Zea mais) leaf-discs are sprayed with a preparation of the active ingredient of the desired concentration. Once dry, the leaf discs are infested with fall armyworm larvae (Spodoptera frugiperda).
# After the specified period of time, mortality in % is determined. 100% means that all the caterpillars have been killed; 0% means that none of the caterpillars have been killed. The mortality values thus determined are recalculated using the Colby-formula.
# [3] = test system: two spotted spider mite (Tetranychus urticae); experiment: Tetranychus urticae test (OP-resistant, spray application) (Example 3); conditions: 1.5 g ai/ha
# Method: Solvent: 78 parts by weight acetone
# • 1.5 parts by weight dimethylformamide Wetting agent: 0.5 parts by weight alkylarylpolyglcolether
# as §3, with “preparation of the bacteria, fungi” for “preparation of bacteria, fungi”, “spores/g or cells/g. To produce” for “spores/g or cells/g, the preparation of the virus 10^13 particles/1. To produce”
# French beans (Phaseolus vulgaris) infected with all developmental stages of the two spotted spider mite (Tetranychus urticae), are sprayed with a preparation of the active ingredient at the desired dose rates.
# After the specified period of time, activity in % is determined Thus 100% means that all spider mites have been killed and 0% means that none of the spider mites have been killed. The mortality values determined thus are recalculated using the Colby-formula (see sheet 1).
Molecule,mortality at 1000 g/ha [1] [%],Mortality in % after 2d [2] [%],Mortality in % after 6d [3] [%]
Cc1ccc(C(C)C)c(O)c1 [Thymol],0,–,–
B1,–,0,0

# — patent publication US9572342B2, “Use of an anthranilic diamide derivatives with heteroaromatic and heterocyclic substituents in combination with a biologicalcontrol agent” (BAYER INTELLECTUAL PROPERTY GMBH, priority 2011, dated 2017)
